From patent US20030229203A1

Key:
CCR5 (human) = CCR5 (human) (UniProt P51681); test: cell-based or functional assay
CCR1 = target: T1, CCR1 (UniProt P32246); test: cell-based or functional assay
T1 sequence (looked up): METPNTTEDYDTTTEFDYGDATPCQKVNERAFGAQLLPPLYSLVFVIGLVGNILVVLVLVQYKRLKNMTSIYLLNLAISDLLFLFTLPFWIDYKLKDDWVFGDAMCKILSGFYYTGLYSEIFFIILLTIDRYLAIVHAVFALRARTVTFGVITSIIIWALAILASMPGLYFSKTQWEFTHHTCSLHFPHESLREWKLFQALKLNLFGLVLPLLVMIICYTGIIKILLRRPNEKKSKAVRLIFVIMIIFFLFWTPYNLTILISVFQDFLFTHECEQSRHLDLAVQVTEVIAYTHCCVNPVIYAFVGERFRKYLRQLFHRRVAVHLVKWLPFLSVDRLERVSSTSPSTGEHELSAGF

Chain of RANTES(3-68) (P13501 26-91 limits assumed): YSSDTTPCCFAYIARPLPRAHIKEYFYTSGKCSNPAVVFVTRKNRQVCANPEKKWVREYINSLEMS
Chain of RANTES(1-68) (P13501 24-91): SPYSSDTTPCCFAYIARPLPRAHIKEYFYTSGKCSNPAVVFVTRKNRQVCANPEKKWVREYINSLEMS
Chain of CCR5 (human) (P51681 whole entry): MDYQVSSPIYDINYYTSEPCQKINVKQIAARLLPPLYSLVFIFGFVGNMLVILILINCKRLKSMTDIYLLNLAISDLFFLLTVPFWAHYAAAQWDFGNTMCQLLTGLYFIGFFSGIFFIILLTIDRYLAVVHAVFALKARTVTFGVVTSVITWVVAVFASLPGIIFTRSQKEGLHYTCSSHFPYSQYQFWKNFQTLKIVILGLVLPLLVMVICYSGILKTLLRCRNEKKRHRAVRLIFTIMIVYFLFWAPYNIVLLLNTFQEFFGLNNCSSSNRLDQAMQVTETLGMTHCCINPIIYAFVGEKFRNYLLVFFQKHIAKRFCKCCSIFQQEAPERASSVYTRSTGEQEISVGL

Substance | concentration sufficient to induce a maximal Ca2+ response (Fura-2, HEK-293 cells expressing CCR5) (CCR5 (human)) | concentration at which the Ca2+ response saturated (Fura-2, HOS-CD4 cells expressing CCR1) (CCR1) | amount required to produce a detectable Ca2+ response, relative to RANTES(1-68) (Fura-2, HOS-CD4 cells expressing CCR1) (times that for RANTES(1-68)) (CCR1)
RANTES(1-68) (from UniProt P13501 24-91) (ligand) | 10 nM | 50 nM | –
RANTES(3-68) (from UniProt P13501 26-91) (ligand) | 10 nM | > 200 nM | 100
